CN107759691A (HANGZHOU SHANGJIAN BIOTECHNOLOGY CO LTD, dated 2018)

T1: 人AXL蛋白胞外段-人IgG1Fc段融合蛋白 (AXL-Fc) (human, UniProt P30530 26-451)
T1 construct: extracellular domain; Expressed in CHO-K1 cells; also called 靶抗原AXL-Fc; not shown: human IgG1 Fc fragment
T1 sequence (looked up): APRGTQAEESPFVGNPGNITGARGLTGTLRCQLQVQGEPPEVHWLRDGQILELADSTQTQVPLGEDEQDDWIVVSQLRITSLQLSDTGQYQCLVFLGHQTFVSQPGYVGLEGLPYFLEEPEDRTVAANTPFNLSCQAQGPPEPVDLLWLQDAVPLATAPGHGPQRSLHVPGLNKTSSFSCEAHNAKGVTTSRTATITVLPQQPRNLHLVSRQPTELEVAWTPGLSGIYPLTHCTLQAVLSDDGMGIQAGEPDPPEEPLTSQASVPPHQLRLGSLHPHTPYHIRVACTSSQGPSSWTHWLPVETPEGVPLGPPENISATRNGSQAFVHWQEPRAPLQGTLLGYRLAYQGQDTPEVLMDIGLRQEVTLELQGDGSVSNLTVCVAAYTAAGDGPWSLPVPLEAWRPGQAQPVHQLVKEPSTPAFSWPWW

T2: A549细胞表面AXL (UniProt P30530 26-894, limits assumed)
T2 construct: whole, on cells; Endogenous AXL on A549 cells, flow cytometry; also called AXL on A549 cells
T2 sequence (looked up): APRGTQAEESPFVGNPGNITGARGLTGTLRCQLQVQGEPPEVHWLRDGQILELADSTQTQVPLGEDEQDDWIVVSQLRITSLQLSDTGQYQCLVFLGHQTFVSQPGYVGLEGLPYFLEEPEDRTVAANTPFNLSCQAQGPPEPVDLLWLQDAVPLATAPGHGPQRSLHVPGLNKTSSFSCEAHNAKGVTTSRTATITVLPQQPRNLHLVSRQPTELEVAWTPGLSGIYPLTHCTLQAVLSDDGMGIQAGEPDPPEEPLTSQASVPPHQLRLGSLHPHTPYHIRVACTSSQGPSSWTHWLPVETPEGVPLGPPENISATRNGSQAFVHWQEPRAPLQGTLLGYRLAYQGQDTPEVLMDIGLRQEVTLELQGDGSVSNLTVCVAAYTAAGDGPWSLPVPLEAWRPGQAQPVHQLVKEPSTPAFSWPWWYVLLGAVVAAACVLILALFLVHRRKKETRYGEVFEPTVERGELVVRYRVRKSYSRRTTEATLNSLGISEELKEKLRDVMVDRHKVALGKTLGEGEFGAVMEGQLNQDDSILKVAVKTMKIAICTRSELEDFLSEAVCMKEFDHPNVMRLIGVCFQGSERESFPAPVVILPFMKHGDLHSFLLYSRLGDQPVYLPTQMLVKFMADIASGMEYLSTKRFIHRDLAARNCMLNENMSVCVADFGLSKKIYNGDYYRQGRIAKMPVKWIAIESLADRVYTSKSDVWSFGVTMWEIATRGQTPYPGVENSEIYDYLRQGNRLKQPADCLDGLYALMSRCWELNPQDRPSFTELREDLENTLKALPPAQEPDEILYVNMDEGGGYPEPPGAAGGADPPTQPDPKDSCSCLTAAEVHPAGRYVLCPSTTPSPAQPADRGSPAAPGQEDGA


Legend:
[1] = biological target: T1, 人AXL蛋白胞外段-人IgG1Fc段融合蛋白 (AXL-Fc); test: ELISA, AXL-Fc coated at 1μg/ml, antibody titrated, OD450
[2] = biological target: T3, BSA(BOVOGEN) (UniProt P02769 25-607); test: ELISA, protein coated at 1μg/ml, C3D3 detected with HRP goat anti-human IgG
T3 construct: Control coating
T3 sequence (P02769 25-607 limits assumed): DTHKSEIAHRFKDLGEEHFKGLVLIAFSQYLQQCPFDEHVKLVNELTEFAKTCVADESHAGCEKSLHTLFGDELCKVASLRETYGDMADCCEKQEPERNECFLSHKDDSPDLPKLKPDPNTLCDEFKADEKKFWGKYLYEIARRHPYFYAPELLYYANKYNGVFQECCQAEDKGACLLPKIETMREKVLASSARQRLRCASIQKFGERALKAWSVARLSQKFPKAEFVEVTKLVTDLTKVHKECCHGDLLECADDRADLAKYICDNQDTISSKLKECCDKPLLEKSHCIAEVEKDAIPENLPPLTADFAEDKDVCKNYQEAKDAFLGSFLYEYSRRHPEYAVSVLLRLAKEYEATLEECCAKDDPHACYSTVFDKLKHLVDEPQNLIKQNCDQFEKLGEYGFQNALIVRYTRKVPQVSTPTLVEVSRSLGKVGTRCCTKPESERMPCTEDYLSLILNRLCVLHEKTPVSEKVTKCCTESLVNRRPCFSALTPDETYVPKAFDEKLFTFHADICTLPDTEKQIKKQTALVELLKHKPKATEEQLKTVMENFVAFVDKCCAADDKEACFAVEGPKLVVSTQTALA

[3] = biological target: T2, A549细胞表面AXL; test: flow cytometry on A549 cells, C3D3 diluted to 20μg/ml and mixed with an equal volume of cells, PE mouse anti-human IgG

| binding result [1] | binding result [2] | binding result [3] | Binder |
| --- | --- | --- | --- |
| binds |  |  | 3D3抗体 (antibody, V domains shown, also called 3D3 antibody) VH: EVKLLESGGGLVQPEGSLKLSCVASGFDFRRYWMSWVRQAPGKGLEWIGEINPAGSTINQTPSLKDKFIISRDNAKNTLYLQMSKVRSEDTALYYCVRLSVVFYYYGMDYWGQGTSVTVSS VL: not shown |
| binds | no binding | binds | C3D3(Chimeric 3D3)抗体 (antibody, human IgG1, kappa, V domains shown, Copies of 2 follow from the whole IgG format, not from a printed number; also called C3D3 antibody) VH: EVKLLESGGGLVQPEGSLKLSCVASGFDFRRYWMSWVRQAPGKGLEWIGEINPAGSTINQTPSLKDKFIISRDNAKNTLYLQMSKVRSEDTALYYCVRLSVVFYYYGMDYWGQGTSVTVSS VL: not shown |
